Non-standard residues stand in square brackets, D forms with d. No end group written: not given here. pS = N[C@@H](COP(=O)(O)O)C(=O)O
T1: TSG101 UEV (human, UniProt Q99816 2-145)
T1 chain: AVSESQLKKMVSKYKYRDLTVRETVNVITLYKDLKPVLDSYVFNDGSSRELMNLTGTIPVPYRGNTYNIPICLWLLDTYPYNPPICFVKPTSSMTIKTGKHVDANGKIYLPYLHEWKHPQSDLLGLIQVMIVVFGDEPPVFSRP

T2: Clathrin N‐terminal domain (NTD) (human, UniProt Q00610 1-364)
T2 chain: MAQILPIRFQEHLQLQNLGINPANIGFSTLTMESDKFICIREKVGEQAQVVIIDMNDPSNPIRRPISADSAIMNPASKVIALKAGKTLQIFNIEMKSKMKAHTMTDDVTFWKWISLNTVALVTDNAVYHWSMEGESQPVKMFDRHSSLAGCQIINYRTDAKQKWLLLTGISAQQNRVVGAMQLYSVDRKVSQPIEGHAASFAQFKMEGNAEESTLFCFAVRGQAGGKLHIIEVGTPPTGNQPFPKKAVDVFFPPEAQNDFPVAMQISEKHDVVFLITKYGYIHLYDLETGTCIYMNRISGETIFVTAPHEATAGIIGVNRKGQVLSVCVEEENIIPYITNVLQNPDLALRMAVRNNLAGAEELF


molecular target: SNX27 PDZ (human, UniProt Q96L92 43-136); assay: FP

IC50 [µM]	Binder
210	NLLLERDTSFTVCPD [CDC25C_(30–44), wild‐type]
1300	GMVSSTSFNGG [DAXX_(606–616), wild‐type]
1000	NLLLERDT[pS]FTVCPD [CDC25C_(30–44), phosphorylated (pS)]
1800	NLLLERDTEFTVCPD [CDC25C_(30–44), phosphomimetic (E)]

molecular target: MAP1LC3A (human); assay: FP

IC50 [µM]	Binder
11	KKQLKRFETEEFVLL [ATG4C_(444–458), phosphomimetic (E)]
5.5	KKQLKRF[pS]TEEFVLL [ATG4C_(444–458), phosphorylated (pS)]
17	KKQLKRFSTEEFVLL [ATG4C_(444–458), wild‐type]

Molecular target: T1, TSG101 UEV
Assay: FP

IC50 [µM]	Binder
29	HSGNVTPTAPPYLQES [PIP4P2_(17–32), wild‐type]
34	QSIAREPSAPSIPTP [PDCD6IP_(711–725), wild‐type]
465	NGCSSPTAPLSPMSP [GJA1_(269–283), wild‐type]

Molecular target: T2, Clathrin N‐terminal domain (NTD)
Assay: FP

IC50 [µM]	Binder
318	GGNLITFSPLQPGEF [HURP_(832–846), wild‐type]
11	YRHISFGGNLITF[pS]PLQPGEF [pS839 HURP_(826–846) peptide]
70	GGNLITFEPLQPGEF [HURP_(832–846), phosphomimetic (E)]
11	GGNLITF[pS]PLQPGEF [pS839 HURP_(832–846)]

— publication PMC10333884 (2023)
